According to paper PMC11419001 (bioRxiv, 2024):

Target: ribosomal protein uS10 of the stalled 70S ribosome (E. coli, UniProt P0A7R5 1-103)
Assay: cryo-EM structure

B1: HrpA (E. coli DExH-box RNA helicase), preparation for cryo-EM (enzyme)
chain: MTEQQKLTFTALQQRLDSLMLRDRLRFSRRLHGVKKVKNPDAQQAIFQEMAKEIDQAAGKVLLREAARPEITYPDNLPVSQKKQDILEAIRDHQVVIVAGETGSGKTTQLPKICMELGRGIKGLIGHTQPRRLAARTVANRIAEELKTEPGGCIGYKVRFSDHVSDNTMVKLMTDGILLAEIQQDRLLMQYDTIIIDEAHERSLNIDFLLGYLKELLPRRPDLKIIITSATIDPERFSRHFNNAPIIEVSGRTYPVEVRYRPIVEEADDTERDQLQAIFDAVDELSQESHGDILIFMSGEREIRDTADALNKLNLRHTEILPLYARLSNSEQNRVFQSHSGRRIVLATNVAETSLTVPGIKYVIDPGTARISRYSYRTKVQRLPIEPISQASANQRKGRCGRVSEGICIRLYSEDDFLSRPEFTDPEILRTNLASVILQMTALGLGDIAAFPFVEAPDKRNIQDGVRLLEELGAITTDEQASAYKLTPLGRQLSQLPVDPRLARMVLEAQKHGCVREAMIITSALSIQDPRERPMDKQQASDEKHRRFHDKESDFLAFVNLWNYLGEQQKALSSNAFRRLCRTDYLNYLRVREWQDIYTQLRQVVKELGIPVNSEPAEYREIHIALLTGLLSHIGMKDADKQEYTGARNARFSIFPGSGLFKKPPKWVMVAELVETSRLWGRIAARIDPEWVEPVAQHLIKRTYSEPHWERAQGAVMATEKVTVYGLPIVAARKVNYSQIDPALCRELFIRHALVEGDWQTRHAFFRENLKLRAEVEELEHKSRRRDILVDDETLFEFYDQRISHDVISARHFDSWWKKVSRETPDLLNFEKSMLIKEGAEKISKLDYPNFWHQGNLKLRLSYQFEPGADADGVTVHIPLPLLNQVEESGFEWQIPGLRRELVIALIKSLPKPVRRNFVPAPNYAEAFLGRVKPLELPLLDSLERELRRMTGVTVDREDWHWDQVPDHLKITFRVVDDKNKKLKEGRSLQDLKDALKGKVQETLSAVADDGIEQSGLHIWSFGQLPESYEQKRGNYKVKAWPALVDERDSVAIKLFDNPLEQKQAMWNGLRRLLLLNIPSPIKYLHEKLPNKAKLGLYFNPYGKVLELIDDCISCGVDKLIDANGGPVWTEEGFAALHEKVRAELNDTVVDIAKQVEQILTAVFNINKRLKGRVDMTMALGLSDIKAQMGGLVYRGFVTGNGFKRLGDTLRYLQAIEKRLEKLAVDPHRDRAQMLKVENVQQAWQQWINKLPPARREDEDVKEIRWMIEELRVSYFAQQLGTPYPISDKRILQAMEQISG
binding result: binds
